Data from US20180000768A1, “INTESTINAL FXR AGONISM ENHANCES GLP-1 SIGNALING TO RESTORE PANCREATIC BETA CELL FUNCTIONS” (Salk Institute for Biological Studies, priority 2015, published 2018).

How the values were obtained:
ob/ob mice = experiment: gene expression (RNA-Seq, QPCR) in tissues of treated ob/ob mice; type: in vivo, mouse; conditions: FGF15 injection
Protocol: Total RNA was isolated from cell pellets treated with RNAlater using the RNA mini kit (Qiagen) and treated with DNaseI (Qiagen) for 30 minutes at room temperature. Sequencing libraries were prepared from 100-500 ng total RNA using the TruSeq RNA Sample Preparation Kit v2 (Illumina) according to the manufacturer's protocol. Briefly, mRNA was purified, fragmented, and used for first-, then second-strand cDNA synthesis followed by adenylation of 3′ ends. Samples were ligated to unique adapters and subjected to PCR amplification. Mulitplexed libraries were then validated using the 2100 BioAnalyzer (Agilent), normalized, and pooled for sequencing. RNA-Seq libraries prepared from two biological replicates for each experimental condition were sequenced on the Illumina HiSeq 2500 using bar-coded multiplexing and a 100 bp read length.
Image analysis and base calling were performed with Illumina CASAVA-1.8.2. This yielded a median of 29.9M usable reads per sample. Short read sequences were mapped to a UCSC mm9 reference sequence using the RNA-seq aligner STAR. Known splice junctions from mm9 were supplied to the aligner and de novo junction discovery was also permitted. […] Transcript expression was calculated as gene-level relative abundance in fragments per kilobase of exon model per million mapped fragments and employed correction for transcript abundance bias. […]

isolated islets = experiment: gene expression after direct ex vivo treatment of isolated islets; type: cell-based, mouse; conditions: 24 hours ex vivo, XL335 1 μM, Fex 1 μM
Protocol: Leptin-deficient ob/ob mice were treated daily with vehicle, Fex, or the analogue Fex-D (50 mg/kg) via P.O. for 14 days (A) Chemical structures of fexaramine and Fex-D (B) Schematic of the experimental design (C) Serum glucose levels (D) Glucose tolerance test (E) Insulin secretion in vivo (F) GLP-1 secretion in vivo (G) Heatmap showing hierarchal clustering of gene expression changes in islet induced by Fex (100 mg/kg, 4 wks) and FexD (50 mg/kg, 2 weeks) treatment in ob/ob mice (in vivo); by treatment of islets with XL335 (1 μM), Fex (1 μM), mFgf15 and hFgf19 (24 hours ex vivo); and mFgf15 (0.15 mg/kg, 2 weeks) and INT777 (Tgr5, 60 mg/kg, 4 weeks) treatment of ob/ob mice (in vivo). Gene expression was measured by RNA-Seq and changes are expressed as Z-score. (H) Ven diagram of changes in gene expression in pancreatic islets induced by FEX (100 mg/kg for 5 weeks) and FEX-D (50 mg/kg for 14 days). […] Data represent the mean±STD. Statistical analysis was performed with the Student's t test. *p<0.05, **p<0.01.
Next, primary islets were isolated from mice treated by Fex-D to compare gene expression changes.

[1] = tested on: Leptin-deficient ob/ob mice; experiment: metabolic phenotype and glucose homeostasis of treated ob/ob mice; type: in vivo, mouse; conditions: FGF15 treatment for 2 weeks
Protocol: Leptin-deficient ob/ob mice were purchased from Jackson laboratory (stock no. 000632). Each mouse consumed 100 mg per kg of body weight Fex (in corn oil) per day by oral gavage for 5 weeks. For in vivo analog study, each mouse consumed 50 mg per kg of body weight Fex-D (in corn oil) per day by oral gavage for 14 days. For GLP-1 receptor antagonist study, each mouse was daily treated with 100 μg per kg of body weight Exendin 9-39 amide (Abcam) via intraperitoneal injection for 2 weeks. For INT-777 study, each mouse was daily gavaged with 60 mg per kg of body weight INT-777 (in corn oil) for 5 weeks. […] Core body temperature was measured with a clinical rectal thermometer (Thermalert model TH-5; Physitemp). […] Tail blood was drawn at indicated time intervals, and blood glucose level was measured with a One Touch Ultra glucometer (LifeScan). Body composition was measured with Echo MRI-100 body composition analyzer (Echo Medical Systems). […]
Real-time metabolic analyses were conducted in a Comprehensive Lab Animal Monitoring System (Columbus Instruments). CO2 production, O2 consumption, RQ (relative rates of carbohydrate versus fat oxidation) and ambulatory counts were determined for 4 consecutive days and nights, with at least 24-h for adaptation before data recording. […]

B1: FGF15: FGF15 protein injected in ob/ob mice or applied to islets (protein, UniProt O35622 26-218, looked up)
Fibroblast growth factor 15: RPLAQQSQSVSDEDPLFLYGWGKITRLQYLYSAGPYVSNCFLRIRSDGSVDCEEDQNERNLLEFRAVALKTIAIKDVSSVRYLCMSADGKIYGLIRYSEEDCTFREEMDCLGYNQYRSMKHHLHIIFIQAKPREQLQDQKPSNFIPVFHRSFFETGDQLRSKMFSLPLESDSMDPFRMVEDVDHLVKSPSFQK
reg family gene expression in islets (ob/ob mice): upregulated | transcriptional changes seen in islets in vivo with Fex and Fex-D (isolated islets): not observed | blood glucose levels [1]: significantly reduced | glucose uptake in the skeletal muscle ([1]; soleus): without affecting
